Measured values from paper PMC4589357, “The Role of Electrostatic Interactions in Binding of Histone H3K4me2/3 to the Sgf29 Tandem Tudor Domain” (PLoS ONE, 2015).
Non-standard residues stand in square brackets, D forms with d. Primed or numbered codes have the meaning given here. No end group written: not given here. Lys(Me3) = C[N+](C)(C)CCCC[C@H](N)C(=O)O; Me3″ = trimethyl-lysine

Legend:
[1] = target: T1, Wild-type Sgf29 (SAGA-associated Factor 29) tandem tudor domain, residues 115-293 (human, UniProt Q96ES7 115-293); experiment: ITC; peptide (generally 1.2 mM) titrated to protein (100 uM); for variants of low affinity 2.4 mM peptide to 200 uM protein; 25 mM TRIS pH 8.0, 50 mM NaCl, 1 mM DTT; one-site model; details: both partners purified
T1 construct: also called WT Sgf29; WT; source: E. coli Rosetta BL21 DE3 PlysS, purified (Ni-NTA, TEV cleavage, SEC Superdex 75)
T1 sequence (looked up): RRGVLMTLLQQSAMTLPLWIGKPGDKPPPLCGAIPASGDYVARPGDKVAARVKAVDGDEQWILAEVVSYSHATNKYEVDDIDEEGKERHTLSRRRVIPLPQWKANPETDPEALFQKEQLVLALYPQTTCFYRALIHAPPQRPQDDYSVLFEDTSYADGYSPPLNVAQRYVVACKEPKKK

[2] = Differential scanning fluorimetry (DSF) melting temperature of Sgf29 and variants; type: physicochemical, Homo sapiens; details: for Tm: SYPRO-Orange fluorescence, 25 mM TRIS pH 7.5, 50 mM NaCl, 1 mM DTT, 2.5 μl of 25 μM protein in 25 μl, 20–95°C, 1°C min^-1, ± SD, measured in triplicate
Experimental: Wild-type and variant Sgf29 reader domain proteins (Homo sapiens, residues 115–293) were expressed in terrific broth (TB) medium containing 50 μg ml^-1 kanamycin, using E. coli Rosetta BL21 DE3 PlysS as expression host. Bacteria were cultured to OD600 ≈ 0.6 at 37°C, 200 rpm after which the cultures were induced using 1 mM IPTG (final conc.). Cultures were then incubated at 16°C for 16 hours. Cells were harvested and lysed by sonication in 1x PBS, 250 mM NaCl, 5% glycerol, 0.2% CHAPS, 10mM β-mercaptoethanol. Lysate was centrifuged and the supernatant purified using Ni-NTA beads. The 6xHis tag was cleaved off overnight at 4°C using TEV-protease. Size exclusion chromatography, using a superdex 75 column, was employed as a final purification step with 25 mM TRIS pH 8.0, 50 mM NaCl, 1 mM DTT as eluent. Protein concentrations were determined by UV/Vis spectroscopy at 280 nm.
Sgf29 protein melt curves were obtained as described by Reinhard et. al. using a StepOne-Plus Real-Time PCR system (Applied Biosystems) and MicroAmp fast optical 96-well reaction plates (Applied Biosystems). SYPRO-Orange protein gel stain (Invitrogen) was used as a reporter dye, emitting fluorescence in the FAM channel. Total reaction volume was 25 μl; 20 μl buffer (25 mM TRIS pH 7.5, 50 mM NaCl, 1 mM DTT), 2.5 μl of 25 μM protein and 2.5 μl SYPRO-Orange dye (diluted 1:100 in ddH2O). Melt curve data were obtained in triplicate, in a temperature range of 20–95°C at a step-wise temperature increment of 1°C min^-1. Obtained data were analyzed using DSF Analysis v3.0.2 software, designed by Niesen et. al. (available via ftp://ftp.sgc.ox.ac.uk/pub/biophysics/).

B1: 7-mer H3K4me3 peptide ARTKme3QTA (peptide)
peptide: ARTK(Me3″)QTA
notes: histone H3 N-terminal tail, 7-mer, K4 trimethylated, lacks the last three residues of the 10-mer; The synthesis is described only for the two native 10-mer peptides; also called 7-mer peptide
[1]
  Kd: 9 ± 0.5 µM
  dH: -7.8 ± 0.1 kcal/mol

B2: WT: Wild-type Sgf29 reader domain protein (Homo sapiens, residues 115–293) (protein)
chain: RRGVLMTLLQQSAMTLPLWIGKPGDKPPPLCGAIPASGDYVARPGDKVAARVKAVDGDEQWILAEVVSYSHATNKYEVDDIDEEGKERHTLSRRRVIPLPQWKANPETDPEALFQKEQLVLALYPQTTCFYRALIHAPPQRPQDDYSVLFEDTSYADGYSPPLNVAQRYVVACKEPKKK
modifications: left off: 6xHis, end not stated, cleaved
[2]
  Tm: 57.8 ± 0.1 °C
[2]; listed as WT Sgf29
  Tm: 57.8 °C

B3: D266E: Sgf29 variant, substitution of D266 by glutamic acid (protein)
chain: RRGVLMTLLQQSAMTLPLWIGKPGDKPPPLCGAIPASGDYVARPGDKVAARVKAVDGDEQWILAEVVSYSHATNKYEVDDIDEEGKERHTLSRRRVIPLPQWKANPETDPEALFQKEQLVLALYPQTTCFYRALIHAPPQRPQDDYSVLFEETSYADGYSPPLNVAQRYVVACKEPKKK
modifications: left off: 6xHis, end not stated, cleaved
notes: Sgf29 variant, substitution of D266 by glutamic acid
[2]
  Tm: 57.7 ± 0.1 °C

B4: Y238F: Sgf29 variant, Y238 substituted by phenylalanine (protein)
chain: RRGVLMTLLQQSAMTLPLWIGKPGDKPPPLCGAIPASGDYVARPGDKVAARVKAVDGDEQWILAEVVSYSHATNKYEVDDIDEEGKERHTLSRRRVIPLPQWKANPETDPEALFQKEQLVLALFPQTTCFYRALIHAPPQRPQDDYSVLFEDTSYADGYSPPLNVAQRYVVACKEPKKK
modifications: left off: 6xHis, end not stated, cleaved
notes: Sgf29 variant, Y238 substituted by phenylalanine
[2]
  Tm: 56.5 ± 0.2 °C

B5: D266F: Sgf29 variant, D266 substituted by phenylalanine (protein)
chain: RRGVLMTLLQQSAMTLPLWIGKPGDKPPPLCGAIPASGDYVARPGDKVAARVKAVDGDEQWILAEVVSYSHATNKYEVDDIDEEGKERHTLSRRRVIPLPQWKANPETDPEALFQKEQLVLALYPQTTCFYRALIHAPPQRPQDDYSVLFEFTSYADGYSPPLNVAQRYVVACKEPKKK
modifications: left off: 6xHis, end not stated, cleaved
notes: Sgf29 variant, D266 substituted by phenylalanine
[2]
  Tm: 53.9 ± 0.5 °C
  decrease in Tm relative to WT Sgf29: 3.3 °C

B6: D266W: Sgf29 variant, D266 substituted by tryptophan (protein)
chain: RRGVLMTLLQQSAMTLPLWIGKPGDKPPPLCGAIPASGDYVARPGDKVAARVKAVDGDEQWILAEVVSYSHATNKYEVDDIDEEGKERHTLSRRRVIPLPQWKANPETDPEALFQKEQLVLALYPQTTCFYRALIHAPPQRPQDDYSVLFEWTSYADGYSPPLNVAQRYVVACKEPKKK
modifications: left off: 6xHis, end not stated, cleaved
notes: Sgf29 variant, D266 substituted by tryptophan
[2]
  Tm: 55.5 ± 0.1 °C
  decrease in Tm relative to WT Sgf29: 2.3 °C

B7: D266Y: Sgf29 variant, D266 substituted by tyrosine (protein)
chain: RRGVLMTLLQQSAMTLPLWIGKPGDKPPPLCGAIPASGDYVARPGDKVAARVKAVDGDEQWILAEVVSYSHATNKYEVDDIDEEGKERHTLSRRRVIPLPQWKANPETDPEALFQKEQLVLALYPQTTCFYRALIHAPPQRPQDDYSVLFEYTSYADGYSPPLNVAQRYVVACKEPKKK
modifications: left off: 6xHis, end not stated, cleaved
notes: Sgf29 variant, D266 substituted by tyrosine
[2]
  Tm: 54.5 ± 0.2 °C
  decrease in Tm relative to WT Sgf29: 3.9 °C

B8: Y245F: Sgf29 variant, Y245 substitution (Y245F) (protein)
chain: RRGVLMTLLQQSAMTLPLWIGKPGDKPPPLCGAIPASGDYVARPGDKVAARVKAVDGDEQWILAEVVSYSHATNKYEVDDIDEEGKERHTLSRRRVIPLPQWKANPETDPEALFQKEQLVLALYPQTTCFFRALIHAPPQRPQDDYSVLFEDTSYADGYSPPLNVAQRYVVACKEPKKK
modifications: left off: 6xHis, end not stated, cleaved
[2]
  Tm: 56.4 ± 0.1 °C

B9: D266N: Sgf29 variant, D266 substituted by asparagine (protein)
chain: RRGVLMTLLQQSAMTLPLWIGKPGDKPPPLCGAIPASGDYVARPGDKVAARVKAVDGDEQWILAEVVSYSHATNKYEVDDIDEEGKERHTLSRRRVIPLPQWKANPETDPEALFQKEQLVLALYPQTTCFYRALIHAPPQRPQDDYSVLFENTSYADGYSPPLNVAQRYVVACKEPKKK
modifications: left off: 6xHis, end not stated, cleaved
notes: Sgf29 variant, D266 substituted by asparagine
[2]
  Tm: 56.4 ± 0.1 °C

B10: D266A: Sgf29 variant, D266 substituted by alanine (protein)
chain: RRGVLMTLLQQSAMTLPLWIGKPGDKPPPLCGAIPASGDYVARPGDKVAARVKAVDGDEQWILAEVVSYSHATNKYEVDDIDEEGKERHTLSRRRVIPLPQWKANPETDPEALFQKEQLVLALYPQTTCFYRALIHAPPQRPQDDYSVLFEATSYADGYSPPLNVAQRYVVACKEPKKK
modifications: left off: 6xHis, end not stated, cleaved
notes: Sgf29 variant, D266 substituted by alanine
[2]
  Tm: 55.8 ± 0.3 °C

B11: 10-mer H3K4me3 peptide that contains G instead of R at position 8 (ARTKme3QTAGKS) (peptide)
peptide: ART[Lys(Me3)]QTAGKS
notes: The synthesis is described only for the two native 10-mer peptides
[1]
  Kd: 4 ± 0.6 µM
  dH: -8 ± 0.1 kcal/mol
